The chains are these.
B1: CPEB3 Ribozyme (parent)
chain: UAACAGGGGGCCACAGCAGAAGCGUUCACGUCGCAGCCCCUGUCAGAUUCUGGUGAAUCUGCGAAUUCUGCUGUAUAUCUC

Variants of B1 are the subject of this data set. As to the kind of experiment: self-cleavage, relative activity (ratio to wild type); higher = more cleavage; in vitro, sequencing. The essentials:
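Relative activity compares each variant's cleaved/total read fraction with that of the unmutated ribozyme. To get these fractions, barcoded CPEB3 ribozyme libraries from rounds of error-prone PCR were transcribed with T7 RNA polymerase for 5 hours at 37°C and then given 15 min of DNase I treatment before EDTA was added. The RNAs were reverse transcribed with template switching and sequenced on Illumina, and DNA sequencing linked barcodes to variants. A minimum of 5 reads applied, and three batches were averaged.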
Take G8A A15C: the self-cleavage amounted to 0.31. The figure for U51A U76C is 1.11. In the case of G9A U43A, the self-cleavage was 0.39. With G19U A75U, the self-cleavage is 0.28. With U25C U51C, the self-cleavage came out at 0.26. With G7A G16C the figure was 0.23; with C29U U72A, 0.42. Consider U51A G52C, for which the self-cleavage is 1.09. Turning to C29U A75U, the self-cleavage was found to be 0.72. With G8U U49A, the self-cleavage was found to be 0.28. As for U49A C59U, the self-cleavage came out at 0.19. For G6A U76G, the self-cleavage came out at 0.14. As for A35U U60C, the self-cleavage stood at 0.24. Regarding C34G A77C, the self-cleavage came out at 0.08. On to A2U U41C, for which the self-cleavage was found to be 1.07. For A35C U67A, the self-cleavage is 0.23. On to C37U U69A, for which the self-cleavage is 0.2. Take G9A G61A: the self-cleavage was 0.06. With A15C U25C, the self-cleavage stood at 0.23.

Regarding C11U U67G, the self-cleavage amounted to 0.18.

As to A15U G19C, the self-cleavage turned out to be 0.17.

For U49G U72C, the self-cleavage was found to be 0.72. Turning to C23G A64G, the self-cleavage was determined as 0.08.

For A15G A64C, the self-cleavage was 0.25. Turning to A13G U69G, the self-cleavage came out at 0.39. The figure for U1A G52A is 1.1; for A5G U31A it is 0.41. For the variant C44G A65U, the self-cleavage was determined as 0.1. With A20G C59G, the self-cleavage was 0.45. With A45G U60A, the self-cleavage turned out to be 0.53. In the case of G7A A56U, the self-cleavage worked out at 0.52.

Take A5U C27U: the self-cleavage came to 0.22. Regarding C32U U76A, the self-cleavage amounted to 0.18. For G9U U49C, the self-cleavage worked out at 0.11. In the case of U43A U80C, the self-cleavage was found to be 1.15. For A21U G63A, the self-cleavage came to 0.5. As for U69C C81U, the self-cleavage was determined as 0.5. Take C27A U67C: the self-cleavage amounted to 0.14.

For A20G U69G, the self-cleavage stood at 0.42. The figure for U76C A77U is 1.07.

A47C U60A: the self-cleavage turned out to be 0.15. Regarding A64C U78C, the self-cleavage stood at 0.28. With G22A A64U the figure was 0.32; with U67A G73C, 1.07. On to G9A U80A, for which the self-cleavage was 0.21. In the case of C29U A64U, the self-cleavage was 0.25. Take A13C C44A: the self-cleavage is 0.42. For the variant U25C G52A, the self-cleavage was determined as 0.26. Turning to C4U A45U, the self-cleavage worked out at 0.47. Turning to U25C U66G, the self-cleavage turned out to be 0.69. With C11U U26C the figure was 0.31. Take G7U A65G: the self-cleavage was found to be 0.4.

Take A18C A57G: the self-cleavage amounted to 0.3. With U25C U26G, the self-cleavage amounted to 0.31. Consider C59A U78A, for which the self-cleavage was determined as 0.22. As to C32U C81U, the self-cleavage was found to be 0.37. With C4U A5G, the self-cleavage came to 0.84. On to G36A U51A, for which the self-cleavage stood at 0.4. With C50U U72C, the self-cleavage was determined as 1.13. As to A28G U78C, the self-cleavage turned out to be 0.61. G7C G61C: the self-cleavage amounted to 0.1. The figure for A3U A20C is 0.21; for A5U A21U it is 0.53; for A5U A21C it is 0.29. As for C62U U80A, the self-cleavage was 0.3.

For G6A U41C, the self-cleavage is 0.31. With A28U G70A, the self-cleavage turned out to be 0.27. For the variant C40A A45G, the self-cleavage was found to be 0.26.

G46A C68A: the self-cleavage was determined as 0.15. Turning to G63A U74C, the self-cleavage was found to be 1.21. As to C37A C68U, the self-cleavage worked out at 0.09. On to G8C A56G, for which the self-cleavage worked out at 0.17. For the variant G24A C68A, the self-cleavage is 0.07. For A35G G52U, the self-cleavage is 1.36. With A45G U58G, the self-cleavage worked out at 0.18. With A5U C40U the figure was 0.78. On to U48C G73U, for which the self-cleavage stood at 0.95.

On to A28G C40G, for which the self-cleavage was determined as 0.22. As to A56G A77U, the self-cleavage came out at 0.99. In the case of A5G G55A, the self-cleavage was 0.37. As for G6A U69A, the self-cleavage came out at 0.32.

Turning to A13C A57U, the self-cleavage turned out to be 0.28. The figure for A3U C29U is 0.71; for A15G A20U it is 0.24; for U58C it is 0.56. With U26A the figure was 0.89; with C4G U60C, 0.68; with A47U U51C, 0.43. Regarding A45U C68U, the self-cleavage was 0.53. Consider U66C A75G, for which the self-cleavage amounted to 0.28. Regarding A2G U80C, the self-cleavage stood at 0.69. On to G33A G61A, for which the self-cleavage was 0.14.

With U49C C62U, the self-cleavage is 0.33. Regarding A47U A57U, the self-cleavage is 0.64. As for U25G U66C, the self-cleavage came to 0.23. On to G53A G61A, for which the self-cleavage was 0.73. The figure for U41C U54A is 1.11; for C12G G30A it is 0.29; for A35C A47U it is 0.63.

A15G U72A: the self-cleavage came out at 0.48. The figure for U1A G73A is 1.21; for U25C U67C it is 0.2.

For the variant A3G A45U, the self-cleavage turned out to be 0.4. As to C39U U66C, the self-cleavage amounted to 0.37.

Regarding A13U A57C, the self-cleavage came to 0.7. Consider A35U U48A, for which the self-cleavage came to 0.32. Turning to U43C A75U, the self-cleavage turned out to be 0.62. With U41A G52U the figure was 0.21; with C44G A57G, 0.45; with A18U U74A, 0.62. The figure for A45G A75G is 0.77; for C39G A64C it is 0.17. Regarding C38A U80C, the self-cleavage worked out at 0.41. As for U41A U43A, the self-cleavage worked out at 0.24. As for A5C C37G, the self-cleavage amounted to 0.87.

U67C C81G: the self-cleavage is 0.16. A28U A65G: the self-cleavage was found to be 0.35. As for G33C C79U, the self-cleavage came to 0.19. With G46A C50G the figure was 0.21; with A18U G61C, 0.14. The figure for G10U U41A is 0.22.

With A15C C68U, the self-cleavage was 0.59. On to U26C A35G, for which the self-cleavage worked out at 1.07. The figure for A64U C79U is 0.39. On to G19A C39A, for which the self-cleavage was 0.11. As for C62U U67A, the self-cleavage worked out at 0.29. With C37U U74A, the self-cleavage turned out to be 1.17.

As for A56G A75U, the self-cleavage was found to be 0.95.

For U43C U66G, the self-cleavage worked out at 0.45.

Take U1C U74A: the self-cleavage was 1.21.

Regarding G22A U43A, the self-cleavage came to 0.38. On to U25G A64G, for which the self-cleavage worked out at 0.24. Regarding G10C U49A, the self-cleavage stood at 0.2. With U48C C59A the figure was 0.19. As for C11G U26C, the self-cleavage amounted to 0.24. Turning to G24U U80C, the self-cleavage amounted to 0.41. For C4U A15U, the self-cleavage stood at 0.86. The figure for A5C C71U is 0.57; for G19U G63U it is 0.28; for G7C U67C it is 0.19. Regarding C40U U74G, the self-cleavage worked out at 1.04. Turning to A13G G36A, the self-cleavage worked out at 0.35. Consider G16A U43C, for which the self-cleavage was 0.39.

U26A U76A: the self-cleavage came out at 1.02. For C40A U80A, the self-cleavage is 0.26. As to A77U U80G, the self-cleavage is 1.26. Regarding G10C A45G, the self-cleavage amounted to 0.13.

Consider G46U A57G, for which the self-cleavage is 0.22. Consider A21G U72C, for which the self-cleavage amounted to 0.65. The figure for C29U C44A is 0.14; for C12A A35G it is 0.9. Regarding U67A A75U, the self-cleavage stood at 0.65. With A20U A28C the figure was 0.18; with U69A C71G, 0.22. With A5G G30A the figure was 0.51; with G16U U43C, 0.15; with G8A U49A, 0.25. U48C G61C: the self-cleavage is 0.18. For the variant A21G C62U, the self-cleavage was determined as 0.19. In the case of A20U A65G, the self-cleavage amounted to 0.2. The figure for U41C A56G is 0.94; for A35U C81G it is 0.39. In the case of A56G A57G, the self-cleavage is 0.42.

With C11A U54A, the self-cleavage is 0.43. Turning to C37G C59G, the self-cleavage was determined as 0.13. With C40U U72G the figure was 0.32; with U49C U67C, 0.23.

These data come from the RNAGym collection of RNA variant scans (doi:10.1093/nar/gkz1192).
